Test system: P02768
Experiment: SEC; BioSep SEC-s2000 column, PBS pH 7.4, 1 mL/min; share of monomer, dimer and trimer from the UV trace at 280 nm

Substance | percent HSA dimer (SEC UV trace at 280 nm) | percent HSA trimer (SEC UV trace at 280 nm) | percent dimer and trimer together (SEC UV trace at 280 nm)
Recombinant human serum albumin, lyophilized, A9731 (HSA4) | 10.2% (7.2 min) |  | 
Human serum albumin, pharmaceutical solution Albunorm (HSA1) | 1.1% (7.1 min) | 2.9% (5.6 min) | 
Human serum albumin, lyophilized powder from human serum, A1693 (HSA2) | 10.7% (6.7 min) |  | 
Human serum albumin, lyophilized powder from human serum, A3782 (HSA3) | 3.4% (7.3 min) |  | 
DFO*malHSA (HSA1 conjugated with DFO*maleimide at Cys34) |  |  | the other 5% of the UV trace corresponds to the albumin dimer and trimer

From PMC12207588
